In patent US20260347484 (published 2026):

Target: human IGF-1R (human, UniProt P08069)
Test: BLI

B1: PHP1003-3 (designed binder)
chain 1: QVQLQQSGPGLVKPSQTLSLTCTVSGWSISGGWLWNWIRQPPGKGLQWIGWISWDGTNNWKPSLKDRVTISVDTSKNQFSLKLSSVTAADTAVWWCARWGRVFFDWWGQGTLVTVSS
chain 2: DIVMTQSPLSLPVTPGQPASISCRSSQSIVHSNGNTWLQWWLQKPGQSPQLLIWKVSNRLWGVPDRFSGSGSGTDFTLKISRVQAQDVGVWWCFQGSHVPWTFGQGTKVQIK
**Q.** How did the Kd turn out when B1 was run?
**A.** 1.85 nM
